Laboratory results: the DeepSol protein solubility set

experiment: soluble on expression in E. coli; label from the status in PepcDB or PDB records

Soluble on expression in E. coli, not soluble:
MGSDKIHHHHHHMSPRKPRSPTAPNSSASIAPIPRLMPKLFVLDSNVLMHDPTSLFRFQEHDIYITMTTLEELDNNKKGMSEVARNARQTSRFLDEIVSSAITDIDEGISLQLHGTKNATGRLFLQTQAITNVLPVYLASGSADNQIIGAVKFLHDTHQNRVVTLVSKDINMRIKARALGLAAEDYFNDKVLEDTDVLFSGIQELPEDFWDEHGKDMESWQQSGQTFYRVTGPLAGGFVINQFVYLEHDKPFYAQVKETSGRTAVLQTLKDYTHQKNNVWGITARNREQNFAFNLLMNPEVDFVTLLGQAGTGKTLLTLAAGLMQTLEHKVYSEIIMTRVTVPVGEDIGFLPGTEEEKMTPWMGALEDNLDVLNKTDSSAGEWGRAATLDLIRSRIKIKSLNFMRGRTFINKFLIIDEAQNLTPKQMKTLITRAGPATKVVCLGNIAQIDTPYLSEGSSGLTYVVDRFKGWNHSGHVTLQRGERSRLADYAAEIL
MGSDKIHHHHHHMSPSIYPKSNYPDAAILSRLAQQIKGWGKALGFARVGICDTDLTSEEIKLQTWLDKGYHGEMAYMASHGMMRARPQELHPGTVRVISVRMDYLPPEAGFATNLTDPNLGYISRYAGGRDYHKLIRARLKKLGDHISAELIALGFDAADFRPFVDSAPVLERPLAEKAGIGWTGKHSLILNHDSGSWFFLGELFINLPLPVDIPIQEACNTCVACMTSCPTGAIVEPYVVDGRRCISYLTIELQGAIPEEFRPLMGNRIYGCDDCQLVCPINRQAPLTTEIDFHIRPQLKQPDLLSLFAWSEAEFLKQTEGSAIRRIGHKRWLRNIAVALGNAPANPIILEALTNRQESADVDEMVLEHIQWAIDAQQSRLAASNTLVQQKSRRQTARMVRIIEKGLPRDA
MGSDKIHHHHHHMSQAPYFVPRAPYAEDPSKSKGRRFKEDESRTRTPFARDRDRIIHTSAFRRLKEKTQVFVAHEGDNFRTRLTHTLEVAQVARSLATALGLDADLAETIALAHDLGHPPFGHAGEDELEIQMREYGGFDHNVQTFRVVTELEHRYPDFIGLNLTWETLEGVIKHNGPVTNKLGKPSWKAISKYDNEYELGLGTWASAEAQVAALADDIAYNNHDVDDGVTAGLFTLDDLMDVPLIGPILAAVKSERPDLDARLTHLEAVRRMIGAMVDDVMGETLHRAAASGVQSADDVRALDHALVAFSSDMAEDLARLRGFLYERMYRHWRVNRTRSQARRILGEMFALFLREPEVLPTVWFAKSQNRDEAGRARVVCDYIAGMTDRFAIEEHRKLFHLDVWN
MGSDKIHHHHHHMSQTLLPPGWVEKLCDPYAVLGISVIADDRQIFKRYHTLAKLLHPDRHAKNCNPDQKLATAIFSHLINPAYQQLKHRQKRLIAIAMLRSDARVSEQKPLSSQSAIAQEIMKMSTPEAELFYEEAIACYAEAQYKSLDQFYQVTQQITILNLVYLRLHKPDLFLPQKAVAIIPEVEVNPVELTLTDVKPVLTNYAQRHYQRAIEYVRLGKWVIAVQELRDAIKLEPNNSDYYALLGLVHLKQKFMGMARVYICQALKLNPQNSLALKYAPELKIKLGENTNPKSMAKAVSIAALLSRFTQRKGSQVKC
MGSDKIHHHHHHMSRDKTLFVCQECGSISNKWLGRCPDCGAWNSFVEQRVEKTVAKSQTTYATASPPQFLHAVPITDVGRSTTGLAELDRVLGGGQVPGAAILLGGEPGIGKSTLLLQTAHHLAQVSKVLYVTGEESAAQVALRAQRLGLGRSPVRVVAENHLEAIEGLLRGEQPALVLVDSIQTVYTDTLQSAPGSVAQVRECAARLVRFAKATGTTVWLVGHVTKEGAIAGPRVLEHMVDTVLYFEGEAGSPYRIVRAIKNRFGAANELGVFQMHEEGLSEVANPSQLFLSQHERPVAGSVVLATQEGTRPLLVEVQALVTPSPLANPRRVAIGLDPNRLSLLLAILHRHGDSMFFDQDVFVNIAGGIKVNEPAADLAVALALVSSFRNKPLEGRRVVFGELGLAGEVRPVAGTEARVREAVKLGFKGAILPRSDKISAAATFKLHPAGRLGDAMEAAFAAE
